In patent US9932404B2:

Target: full length human TLR3 (human)

- % inhibition of poly(I:C)-induced NF-κB luciferase reporter: 8%
Substance: TLR3.7 (eBiosciences, cat no 14-9039) (antibody)
